Data as given in patent US20090075340A1.

Molecular target: HLA-Cw4 on LCL 721.221-Cw4 cells (human)
Assay: cell-based or functional assay

KIR2DL1 expressed on YTS-2DL1 NK cells (from UniProt P43626 22-348)
killing of LCL 721.221-Cw4 cells by YTS-2DL1 in the absence of any anti-KIR mAb: 5%
